Experimental data as given in patent US20250340661A1, “ANTI CD40 ANTIBODY, ANTIGEN BINDING FRAGMENT AND MEDICAL USE THEREOF” (Jiangsu Hengrui Pharmaceuticals Co., Ltd., priority 2021, published 2025).

Assays:
[1] = target: human CD40 on the cell surface (human) (UniProt P25942); experiment: cell-based or functional assay
[2] = target: human CD40 on the cell surface (human) (UniProt P25942); experiment: flow cytometry on Raji cells, AF647 anti-human IgG detection
[3] = target: human CD40 on the cell surface (human) (UniProt P25942); experiment: flow cytometry on Raji cells, Alexa Fluor 488 anti-human IgG (H+L) detection
[4] = target: his-tagged human CD40 (h-CD40-his) recombinant protein (human) (UniProt P25942); experiment: SPR (Biacore), antibody captured on anti-human Fc chip, His-tagged CD40 as analyte, 1:1 model
Sequence of his-tagged human CD40 (h-CD40-his) recombinant protein (human) (P25942 21-193 limits assumed): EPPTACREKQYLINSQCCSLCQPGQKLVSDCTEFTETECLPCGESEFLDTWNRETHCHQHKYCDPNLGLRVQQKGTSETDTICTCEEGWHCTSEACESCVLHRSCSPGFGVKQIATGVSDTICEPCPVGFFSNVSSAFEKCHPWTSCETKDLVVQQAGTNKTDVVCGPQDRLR

Sequence of human CD40 on the cell surface (human) (P25942 21-277): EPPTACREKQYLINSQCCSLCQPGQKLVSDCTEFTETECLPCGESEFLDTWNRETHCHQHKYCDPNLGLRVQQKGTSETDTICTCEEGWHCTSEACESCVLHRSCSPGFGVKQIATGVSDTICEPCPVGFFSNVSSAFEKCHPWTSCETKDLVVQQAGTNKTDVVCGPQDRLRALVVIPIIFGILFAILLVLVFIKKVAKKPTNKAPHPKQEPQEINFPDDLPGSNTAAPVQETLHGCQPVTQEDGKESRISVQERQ

B cell activation assay, CD19+CD69+ % IC50 [1]: 0.14 nM | B cell activation assay, CD19+CD69+ % Maximum inhibition rate [1]: 95% | B cell activation assay, CD19+CD69+ MFI IC50 [1]: 0.07 nM | B cell activation assay, CD19+CD69+ MFI Maximum inhibition rate [1]: 110% | IC50 for the inhibition of CD40 reporter gene cell activity (Assay 1) [1]: 0.36 nM | IC50 for the inhibition of CD40 reporter gene cell activity (Assay 2) [1]: 0.35 nM | IC50 in DC cell activation assay system, CD80 MFI [1]: 1.19 nM | IC50 in DC cell activation assay system, CD86 MFI [1]: 1.93 nM | IC50 in DC cell activation assay system, IL-12/23 p40 [1]: 0.68 nM | IC50 in DC cell activation assay system, TNFα [1]: 0.35 nM | reporter gene cell activity IC50 (HEK-Blue CD40L cells, SEAP) [1]: 0.272 nM | EC50 [2]: 2.41 nM | EC50 [3]: 1.01 nM | Kd [4]: 0.205 nM | koff [4]: 0.000141 s⁻¹ | kon [4]: 688000 M⁻¹ s⁻¹
Substance: anti-CD40 antagonistic antibody CFZ533 (iscalimab)
